Experimental data reported in publication PMC10425332, “Programming conformational cooperativity to regulate allosteric protein-oligonucleotide signal transduction”.

How the values were obtained:
[1] = biological target: T1, thrombin (UniProt P00734;P00734 328-363;364-622); assay: PAGE and FAM/BHQ1 fluorescence (release of strand D); Mg2+; indirect read-out; complexes annealed in 1x TAE/Mg2+ buffer, DNA complex about 0.5-0.6 uM; thrombin trigger 2 h at room temperature (cell experiments); pH and Mg2+ concentration n
[2] = biological target: T1, thrombin; assay: PAGE (release of DGFP); Mg2+; indirect read-out; complexes annealed in 1x TAE/Mg2+ buffer, DNA complex about 0.5-0.6 uM; thrombin trigger 2 h at room temperature (cell experiments); pH and Mg2+ concentration n
[3] = biological target: T1, thrombin; assay: PAGE and fluorescence (release of strand D); Mg2+; indirect read-out; complexes annealed in 1x TAE/Mg2+ buffer, DNA complex about 0.5-0.6 uM; thrombin trigger 2 h at room temperature (cell experiments); pH and Mg2+ concentration n

B1: complex CDAB (15Apt and 29Apt thrombin aptamers on B and A) (structured_DNA)
DNA 1: AATGGTCCTATGATTCCGTTTTTTTTTTTTGTCACTAGCTACTAGGTAGCTAGTGACGTTATTTTTTTTATGAGAGAGAGTGTGTCC
DNA 2: TAACGTCACTAGCTACCTTTTTTTTTTTTTTTTTTTTTTTTTTTTTTTTTTTTTTTT
DNA 3: GGACACACTCTCTCTCATTTTAGTCCGTGGTAGGGCAGGTTGGGGTGACT
DNA 4: GGTTGGTGTGGTTGGTTTCGGAATCATAGGACCATT
Q: Does B1 bind [1]?
A: binds

B2: complex-G C3DGFPAB (T1 3 nt, T2 12 nt) (structured_DNA)
DNA 1: AATGGTCCTATGATTCCGTTTTTTTTTTTTTGCACGCTGCCGTTACGGCAGCGTGCAGCTCTTTTTTTTATGAGAGAGAGTGTGTCC
DNA 2: GAGCTGCACGCTGCCGTCTTTTTTTTTTTTTTTTTTTTTTTTTTTTTTTTTTTTTTTTT
DNA 3: GGACACACTCTCTCTCATTTTAGTCCGTGGTAGGGCAGGTTGGGGTGACT
DNA 4: GGTTGGTGTGGTTGGTTTCGGAATCATAGGACCATT
Q: Does B2 bind [2]?
A: binds

B3: single-trigger-site complex with E-29apt (structured_DNA)
DNA 1: AATGGTCCTATGATTCCGTTTTTTTTTTTTGTCACTAGCTACTAGGTAGCTAGTGACGTTATTTTTTTTATGAGAGAGAGTGTGTCC
DNA 2: TAACGTCACTAGCTACCTTTTTTTTTTTTTTTTTTTTTTTTTTTTTTTTTTTTTTTT
DNA 3: GGACACACTCTCTCTCATTTTAGTCCGTGGTAGGGCAGGTTGGGGTGACTTTTCGGAATCATAGGACCATT
Q: Does B3 bind [3]?
A: binds
